The text below walks through data of US20170119790A1, “Agents, Uses and Methods” (CYTOGUIDE A/S, priority 2009, published 2017).

In assay [1] the test system is LPS mediated TNFα stimulation of rat macrophages / spleen cells. Kind of assay: Rat in vitro LPS model. The format is cell-based. The conditions noted are these: FIG. 41. On the procedure:
Rat or mouse peritoneal or spleen cell suspensions were prepared from female Lewis rats (Harlan) or BalB/cA mice (Taconic). Human mononuclear cells were isolated from buffycoats (Skejby University Hospital) as described above. The purified cells were suspended in RPMI medium supplemented with 10% FCS and 2 mM L-glutamine and cultured (2×10^5 per well) overnight in 96-well flat bottomed plates (125 μl per well) at 37° C. and 5% CO2. Glucocorticoid conjugates (Example 8), free glucocorticoids or PBS were serial diluted in supplemented RPMI medium and added (100 μl) to the overnight cell cultures at final concentrations ranging from 1-10^−7 μg glucocorticoid/ml. After incubation for a specific time ranging from 30 min-24 hours, 150 μl supernatant was carefully aspirated and 150 μl supplemented RPMI medium added to the wells before further incubation overnight. Each incubation condition was tested in duplicates or triplicates. After 16-20 hours, the cells were challenged with lipopolysaccharide (LPS) (250 ng/ml) for 4 hours before supernatant was aspirated from each well and frozen at -20° C.

Assay [2] relates to LPS mediated TNFα stimulation. Briefly: Rat in vivo LPS model. Further details: species or system Lewis rats. Conditions: i.v., challenged with LPS, FIG. 41.
The target of assay [3] is T1, CD163 (Homo sapiens, UniProt Q86VB7). Kind of assay: Surface plasmon resonance (Biacore) analysis of mAb binding to immobilized CD163. Conditions: in both 2 mM free Ca2+ and 10 mM EDTA. On the procedure:
(§1) SPR analysis of the binding of mAbs to CD163 was carried out on a Biacore 2000 instrument (Biacore, Uppsala, Sweden). The Biacore sensor chips (type CM5) were activated with a 1:1 mixture of 0.2 M N-ethyl-N′-(3-dimethylaminopropyl) carbodiimide and 0.05 M N-hydroxysuccimide in water. Purified recombinant CD163 were immobilized in 10 mM sodium acetate, pH 4.0, and the remaining binding sites were blocked with 1 M ethanolamine, pH 8.5. The SPR signal generated from immobilized recombinant CD163 proteins corresponded to 40-70 fmol of protein/mm^2. Sensorgrams were generated using mAb concentrations ranging from 5-100 nM. The flow cells were regenerated with 1.6 M glycine-HCl, pH 3. The running buffer used for the experiment was either CaHBS 10 mM Hepes, 150 mM NaCl, 3.0 mM CaCl2, 1.0 mM EGTA, and 0.005% Tween 20, […], and 0.005% Tween 20, pH 7.4, mAb samples were dissolved in the same buffer as the running buffer used. All binding data were analyzed using the Biamolecular Interaction Analysis evaluation program version 3.1.
as §1, with “7.4, KN2/NRY and Mac-158” for “7.4, mAb”, “buffer used at a concentration of 5 μg/ml.” for “buffer used.”
(Surface plasmon resonance follows binding to a sensor surface in real time, without labels.)

Assay [4] addresses T2, CD163 transfected Flp-In CHO cells (Homo sapiens, UniProt Q86VB7).
T2 construct: Stably transfected Chinese hamster ovary (CHO) cells expressing the full-length human CD163; expressed in transfected cells
Briefly: Cellular binding and uptake (endocytosis) of 125I-labeled anti-CD163. The format is cell-based. As for the experimental part: Monocytes were isolated from PBMC by negative selection using magnetic beads from Dynal (Dynabeads® MyPure™ Monocyte Kit 2; Invitrogen A/S, Taastrup, Denmark) according to instructions provided by the manufacturer. Monocyte preparations were more than 95% (CD14^+) pure determined by flow cytometry. The isolated cells were washed twice with phosphate-buffered saline. Monocyte-derived macrophages (MDMs) were prepared by cell culture of monocytes (approximately 1×10^7 cells) for 4 days in 5% CO2 and 37° C. in RPMI 1640 media (RPMI 1640+25 mM HEPES+I-glutamine) (Invitrogen Corporation, Carlsbad, Calif., USA) with 20% FCS containing 100 ng/ml of M-CSF. MDMs were then detached from the flask by incubation with cell dissociation buffer (Invitrogen A/S, Taastrup, Denmark) for 30 minutes at 4 °C, then flushed, and scraped. The cells were then cultured for 24 hours in RPMI 1640 media (RPMI 1640+25 mM HEPES+I-glutamine) (Invitrogen Corporation, Carlsbad, Calif., USA) supplemented with 20% FCS containing 100 ng/ml of M-CSF at 37° C. in 95% air and 5% CO2 in Lab-Tek™ Chamber Slides (Thermo Fisher Scientific, Roskilde, Denmark). 200 nM dexamethasone (Merck KGaA, Darmstadt, Germany) was added during culture to increase CD163 expression. Stably transfected Chinese hamster ovary (CHO) cells expressing the full-length human CD163, as described above, were cultured in serum-free CHO medium (HyQ-CCM, HyClone, Logan, Utah) containing 300 μg/ml Hygromycin B, as previously described (2).
Endocytosis of ^125I-labeled anti-CD163 was investigated in CD163 transfected Flp-In Chinese hamster ovary (CHO) cells and mock-transfected Flp-In as described (Madsen, M., Moller, H. J., Nielsen, M. J., Jacobsen, C., Graversen, J. H., van den Berg, T. and Moestrup, S. K. (2004) Molecular characterization of the haptoglobin.hemoglobin receptor CD163. Ligand binding properties of the scavenger receptor cysteine-rich domain region. J. Biol. Chem., 279, 51561-51567.)

For assay [5], the target named is T3, CHO cells expressing CD163 (Homo sapiens, UniProt Q86VB7).
T3 construct: Stably transfected Chinese hamster ovary (CHO) cells expressing the full-length human CD163; expressed in transfected cells
T3 sequence (Q86VB7 42-1156): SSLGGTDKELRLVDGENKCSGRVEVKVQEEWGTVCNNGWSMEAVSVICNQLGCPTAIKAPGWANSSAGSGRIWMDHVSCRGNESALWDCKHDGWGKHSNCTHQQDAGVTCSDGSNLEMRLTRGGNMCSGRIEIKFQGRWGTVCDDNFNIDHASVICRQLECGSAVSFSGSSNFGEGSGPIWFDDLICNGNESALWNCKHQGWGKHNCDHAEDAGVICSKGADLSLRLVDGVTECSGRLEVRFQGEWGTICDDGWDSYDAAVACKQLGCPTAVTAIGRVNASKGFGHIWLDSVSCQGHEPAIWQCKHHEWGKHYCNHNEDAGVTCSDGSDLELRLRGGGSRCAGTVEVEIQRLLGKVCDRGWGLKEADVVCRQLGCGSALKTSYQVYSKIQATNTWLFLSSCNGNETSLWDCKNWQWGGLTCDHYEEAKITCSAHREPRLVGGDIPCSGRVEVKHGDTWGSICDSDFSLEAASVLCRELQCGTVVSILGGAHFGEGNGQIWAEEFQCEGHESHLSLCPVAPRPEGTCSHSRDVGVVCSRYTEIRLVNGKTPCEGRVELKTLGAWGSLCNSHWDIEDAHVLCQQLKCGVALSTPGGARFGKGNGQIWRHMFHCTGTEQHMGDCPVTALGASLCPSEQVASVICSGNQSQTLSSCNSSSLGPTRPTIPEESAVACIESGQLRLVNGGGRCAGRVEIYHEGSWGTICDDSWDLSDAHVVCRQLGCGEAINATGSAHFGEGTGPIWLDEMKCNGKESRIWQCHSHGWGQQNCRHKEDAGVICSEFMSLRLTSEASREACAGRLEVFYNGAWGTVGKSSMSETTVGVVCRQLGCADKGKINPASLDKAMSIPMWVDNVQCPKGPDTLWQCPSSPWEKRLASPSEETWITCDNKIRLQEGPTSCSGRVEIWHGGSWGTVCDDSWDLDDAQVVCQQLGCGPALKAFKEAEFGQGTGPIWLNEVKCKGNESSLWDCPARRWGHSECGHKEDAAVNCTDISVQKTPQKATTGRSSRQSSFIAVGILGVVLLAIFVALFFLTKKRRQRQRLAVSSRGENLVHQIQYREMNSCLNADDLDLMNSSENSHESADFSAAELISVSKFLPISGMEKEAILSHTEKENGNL
Kind of assay: CD163 antibody binding and uptake in CHO cells expressing CD163 (confocal microscopy). The conditions noted are these: 0 or 30 minutes, FIG. 7. The format is cell-based. As for the experimental part:
Monocytes were isolated from PBMC by negative selection using magnetic beads from Dynal (Dynabeads® MyPure™ Monocyte Kit 2; Invitrogen A/S, Taastrup, Denmark) according to instructions provided by the manufacturer. Monocyte preparations were more than 95% (CD14^+) pure determined by flow cytometry. The isolated cells were washed twice with phosphate-buffered saline. Monocyte-derived macrophages (MDMs) were prepared by cell culture of monocytes (approximately 1×10^7 cells) for 4 days in 5% CO2 and 37° C. in RPMI 1640 media (RPMI 1640+25 mM HEPES+I-glutamine) (Invitrogen Corporation, Carlsbad, Calif., USA) with 20% FCS containing 100 ng/ml of M-CSF. MDMs were then detached from the flask by incubation with cell dissociation buffer (Invitrogen A/S, Taastrup, Denmark) for 30 minutes at 4 °C, then flushed, and scraped. […]
MDMs or CHO cells were washed with 4° C. cold D-PBS, pH 7.4, containing 1% BSA in Lab-Tek™ Chamber Slides (Thermo Fisher Scientific, Roskilde, Denmark). […] Fluorescence was visualized using a Zeiss Axiovert 200M microscope (Carl Zeiss GmbH, Jena, Germany) with an ×100 oil-immersion objective. […] Alternatively, immunostained cells were analyzed by confocal immunofluorescence microscopy using a Zeiss LSM-510 confocal microscope (Carl Zeiss GmbH, Jena, Germany). […]

For assay [6], the target named is T1, CD163. Kind of assay: Competition of binding to Mac2-158 epitope (SPR on Mac2-158 saturated CD163 chip). The conditions noted are these: 2 mM free calcium buffer, mAb 5 μg/ml. On the procedure: To evaluate if there is competition in the binding of a range of mAbs to CD163 we first saturated the CD163-chip with Mac2-158 by injecting 50 μL of 50 μg/ml Mac2-158 and subsequently injecting relevant mAbs in 5 μg/ml. The binding buffer was CaHBS 10 mM Hepes, 150 mM NaCl, 3.0 mM CaCl2, 1.0 mM EGTA, and 0.005% Tween 20, pH 7.4.

The target of assay [7] is T1, CD163. Kind of assay: scFv ELISA. The format is binding. Conditions: for ELISA signal: PBS, read at 450 nm. On the procedure: A nunc Maxisorp ELISA plate (NUNC, Roskilde, Denmark) was coated with 50 μl/well of 2 μg/ml of CD163 (purified as described in (2)) over night at 4° C. The coated plate was washed 3 times in PBS and blocked for 1 hour with 3% BSA in PBS. Fractions from scFv purification were tested by adding 100 μl/well of a 1:10 dilution of each sample in 1% BSA, PBS. The refolded protein sample was added directly to the wells (100 μl/well) and two-fold dilution series was made with dilution in 1% BSA in PBS. After 1 hour incubation at 4° C. the plate was washed 3 times in PBS again. Secondary detection was made with a 1 hour incubation of a HRP conjugated anti-His antibody (Sigma-Aldrich, Brøndby, Denmark) (1:4000 diluted in 1% BSA, PBS). After washing 3 times in PBS the ELISA was developed with […] TMB substrate (Invitrogen, Taastrup, Denmark). The reaction was stopped with 40 μl/well of 1 M H2SO4 and the plate was read in an ELISA reader at 450 nm.
Background: An ELISA detects its analyte on a solid surface through an enzyme-linked reagent.

T1 sequence (Q86VB7 42-1156): as above
T2 sequence (Q86VB7 42-1156): as above

Regarding `CC1(C)O[C@@H]2C[C@H]3[C@@H]4C[C@H](F)C5=CC(=O)C=C[C@]5(C)[C@@]4(F)[C@@H](O)C[C@]3(C)[C@]2(C(=O)CO)O1` [fluocinolone-acetoniode, Fluocinolone acetonide], in assay [1], the “suppressive in vitro effect compared to prednisolone” value is recorded as “significantly higher”. In addition, the “TNFα level lower compared to vehicle” value in assay [2] is on record as 5 times.
Take `C[C@]12C=CC(=O)C=C1CC[C@@H]1[C@@H]2[C@@H](O)C[C@@]2(C)[C@H]1CC[C@]2(O)C(=O)CO` [prednisolone]: in assay [2], the “TNFα level lower compared to vehicle” value was 5 times.

B1: Mac2-48: anti-human CD163 murine mAb, IQ Products; VH SEQ ID NO: 3, VL SEQ ID NO: 4 (antibody, V domains shown)
VH: DVQLQESGPGLVKPSQSLSLTCTVTGYSITSDYAWNWIRQFPGNKLEWMGFISYSGITSYNPSLKSRISITRDTSKNQFFLQLNSVTTEDSATYYCVSGTYYFDYWGQGTTLTVSS
VL: SIVMTQTPKFLLVSAGDRVTITCKASQSVSHDVSWFQQKPGQSPKLLIYYTSNRYTGVPDRFTGSGYGTDFTFTISTVQAEDLAIYFCQQDYSSPRTFGGGTKLEIKRA
modifications: Mac2-48 VH; Mac2-48 VL
As to B1, the “affinities for CD163” value with CD163 [3] is listed as “nanomolar or sub-nanomolar range”. In addition, the “time course of cell-associated radioactivity (bound or internalized)” value in assay [4] (125I-labelled mAb, increasing time points) was “did not reach a plateau”. The “cellular uptake and binding to CD163-expressing cells” value in assay [4] (compared with the other tested antibodies, FIG. 5) is recorded as “considerably higher”. Moreover, in assay [5], the binding and uptake entry was “best binding and uptake”. Besides, the “binding to CD163-Fc saturated with Mac2-158” value with CD163 [6] is on record as “not able to bind”.

B2: refolded scFv: scFv (VH-15 residue linker-VL), SEQ ID NO: 56, expressed in E. coli and refolded (protein)
scFv: MDQVQLQESGPGLVKPSETLSLTCTVSGYSITSDYAWNWIRQFPGNKLEWMGYITYSGSTYYNPSLKSRVTISVDTSKNQFSLKLSSVTAADTATYYCVSGTYYFDYWGQGTTLTVSSGGGGSGGGGSGGGGSDIVMTQSPSSLSASVGDRVTITCRASQSVSSDVAWFQQKPGKSPKPLIYYASNRYSGVPSRFSGSGSGTDFTLTISSLQAEDFAVYFCGQDYTSPRTFGGGTKLEIKREQKLISEEDL
modifications: scFv sequence
For B2, the “dilution down to which binding signals to CD163 were detected” value with CD163 [7] (2 fold dilution series) is 128 fold. Besides, the ELISA signal with CD163 [7] (64 fold dilution in 1% BSA) came to 0.29; with CD163 [7] (128 fold dilution in 1% BSA), 0.15.
